Positions count from the first letter of the chain named. Several values for one entry are separate records, joined by “and”; a condition that tells them apart may be missing. Equal values may be shown once.
B1: ILT70100 (antibody, V domains shown)
VH: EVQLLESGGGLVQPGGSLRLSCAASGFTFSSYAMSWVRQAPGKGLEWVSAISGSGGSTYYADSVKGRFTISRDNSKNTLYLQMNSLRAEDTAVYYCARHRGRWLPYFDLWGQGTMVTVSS
VL: DIQLTQSPSSLSASVGERVTITCQASQDIRSYLNWYQQKPGKAPKLLIYDVSNLETGVPSRFSGSGSGTEYTFSISSLQPEDFATYYCQQYDKAPLTFGGGTKVEIK
B2: ILT70052 (antibody, V domains shown)
VH: EVQLVESGGGLVKPGGSLRLSCEASGFTFTDYYMNWIRQAPGKGLEWISYISPGGTTVYYADSVKGRFTISRDNAKNSLYLQMNSLRVEDTAVYYCARDISGYGDWFDPWGKGTLVTVSS
VL: QSVVTQPPSASGTPGQRVTISCSGSSSNIGSNTVNWYQLLPATAPRILIYNNNQRPSGVPDRFAGSKSGTSASLAISGLQSEDEADYYCGAWDDSLNSPVFGGGTKLTVL
B3: afucosylated IgG1 ILT70137 (antibody, V domains shown)
VH: QVQLQQSGAEVKKPGASVKVSCKASGYTFTSYGISWVRQAPGQGLEWMGWISAYNGNTNYAQKLQGRVTMTTDTSTSTAYMELRSLRSDDTAVYYCARNGLWGWDSDAFDIWGRGTLVTVSS
VL: QSALTQPASVSGSPGQSITISCTGTSSDVGGYNYVSWYQQHPGKAPKLMIYDVSNRPSGVSNRFSGSKSGNTASLTISGLQAEDEADYYCSSYTSSSTVVFGGGTKVTVL
modifications: afucosylated (made as in Example 7: lacks the α-1,6 fucose moiety on the N-glycan at Asn-297 of the heavy chain)
B4: ILT70083.1 (antibody, V domains shown)
VH: EVQLLESGGGLVQPGGSLRLSCAASGFTFSSYAMSWVRQAPGKGLEWVSAISGSGGSTYYADSVKGWFTISRDNSKNTLYLQMNSLRAEDTAVYYCARRTYYYDSDGHSDVFDIWGRGTLVTVSS
VL: QSVVTQPPSVSAAPGQKVTISCSGSASNIGSNFVSWYQQLPGTAPKLLIYDNDKRDLGIPDRFSASISSTSATLGITGLQTGDEADYYCGTWDTSLTVGVFGGGTKLTVL
B5: ILT70083.3 (antibody, V domains shown)
VH: B4 VH
VL: B4 VL with A65G, I67K, S69G
notes: Engineered (germlined) ILT70083 IgG1 variant; also called ILT70083 variant
B6: ILT70083.9 (antibody, V domains shown)
VH: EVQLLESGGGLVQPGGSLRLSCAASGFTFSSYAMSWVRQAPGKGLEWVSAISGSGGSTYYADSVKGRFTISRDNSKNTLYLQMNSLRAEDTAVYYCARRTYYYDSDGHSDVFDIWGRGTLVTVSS
VL: B4 VL with V4L, A65G, I67K, S69G
notes: as for B5
B7: ILT70083.5 (antibody, V domains shown)
VH: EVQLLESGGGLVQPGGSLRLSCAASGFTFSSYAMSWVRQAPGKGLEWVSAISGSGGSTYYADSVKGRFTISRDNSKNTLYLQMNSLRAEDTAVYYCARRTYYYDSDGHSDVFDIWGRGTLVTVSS
VL: B4 VL with T43R, T73A, G75A, G82E
B8: ILT70083.7 (antibody, V domains shown)
VH: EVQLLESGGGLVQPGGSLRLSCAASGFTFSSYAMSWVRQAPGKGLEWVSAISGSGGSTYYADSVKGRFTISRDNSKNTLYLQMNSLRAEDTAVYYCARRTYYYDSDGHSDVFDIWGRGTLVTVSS
VL: B4 VL with V4L
B9: ILT70083.6 (antibody, V domains shown)
VH: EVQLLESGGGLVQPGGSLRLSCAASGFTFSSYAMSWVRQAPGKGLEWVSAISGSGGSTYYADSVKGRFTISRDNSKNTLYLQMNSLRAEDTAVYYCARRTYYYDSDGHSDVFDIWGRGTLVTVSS
VL: B4 VL
notes: as for B5
B10: ILT70083.8 (antibody, V domains shown)
VH: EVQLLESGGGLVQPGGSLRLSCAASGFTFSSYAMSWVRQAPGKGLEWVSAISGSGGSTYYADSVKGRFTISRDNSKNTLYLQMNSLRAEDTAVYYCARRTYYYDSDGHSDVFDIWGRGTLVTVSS
VL: B4 VL with A65G, I67K, S69G
notes: as for B5
B11: ILT70083.4 (antibody, V domains shown)
VH: B4 VH
VL: B4 VL with V4L, A65G, I67K, S69G
notes: as for B5
B12: ILT70083.2 (antibody, V domains shown)
VH: B4 VH
VL: B4 VL with V4L
B13: ILT70080.2 (antibody, V domains shown)
VH: QVQLVQSGAEVKKPGSSVKVSCKASGDSFRNYAVSWVRQAPGQGLEWMGAMMPSFGTREHSQQFQGRVTLSADESTSTAYMELSSLRSEDTAVYYCAGSRDYNAYHFWTGPPDFWGRGTLVTVSS
VL: SYVLTQPPSVSVAPGKTARITCGGDSVGSTSVHWYQQKPGQAPVMVMFYNSDRPSGIPERFSGSISGNTATLTISRVEAGDEADYYCQVWDTSSDHPEFGGGTKLTVL
notes: Engineered (germlined) ILT70080 variant tested as IgG1; also called ILT70080 variant
B14: ILT70080.3 (antibody, V domains shown)
VH: B13 VH with K13A, S16T
VL: B13 VL
notes: as for B13
B15: ILT70080.6 (antibody, V domains shown)
VH: B13 VH with S71T
VL: B13 VL with M45L, M47I, F48Y, I65N
notes: as for B13
B16: afucosylated ILT70080.6 (antibody, V domains shown)
VH: B13 VH with S71T
VL: B13 VL with M45L, M47I, F48Y, I65N
modifications: afucosylated (no core fucose on the Fc N-glycan)
B17: ILT70080.1 (antibody, V domains shown)
VH: B13 VH with S71T
VL: B13 VL
notes: as for B13
B18: ILT70080.7 (antibody, V domains shown)
VH: B13 VH with S71T
VL: B13 VL with M45L, I65N
notes: as for B13
B19: ILT70080.5 (antibody, V domains shown)
VH: B13 VH with S71T
VL: B13 VL with I65N
notes: as for B13
B20: ILT70080.4 (antibody, V domains shown)
VH: B13 VH with K13A, S16T
VL: B13 VL with V3E, R19K, T21S
notes: as for B13

Target: T1, human ILT7 expressed on transfected cells (human, UniProt P59901 24-499)
T1 construct: whole, on cells; also called LILRA4; LIRA4
T1 sequence (P59901 24-499): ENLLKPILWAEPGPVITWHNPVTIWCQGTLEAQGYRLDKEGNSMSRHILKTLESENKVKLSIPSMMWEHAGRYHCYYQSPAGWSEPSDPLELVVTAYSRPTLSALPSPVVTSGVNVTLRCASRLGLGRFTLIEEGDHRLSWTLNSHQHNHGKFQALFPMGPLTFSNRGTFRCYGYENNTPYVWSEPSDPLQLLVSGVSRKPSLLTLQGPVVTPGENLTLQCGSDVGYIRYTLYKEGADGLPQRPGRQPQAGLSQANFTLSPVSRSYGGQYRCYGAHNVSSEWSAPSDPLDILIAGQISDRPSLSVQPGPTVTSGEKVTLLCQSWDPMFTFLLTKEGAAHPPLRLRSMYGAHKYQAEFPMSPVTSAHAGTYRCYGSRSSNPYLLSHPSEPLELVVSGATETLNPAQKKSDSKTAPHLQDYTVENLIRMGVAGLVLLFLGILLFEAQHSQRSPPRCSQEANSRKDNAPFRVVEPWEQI
Assay: FMAT cell binding, CHO cells expressing human ILT7
Excerpt: This homogeneous assay assessed the binding of crude scFv supernatant samples or purified IgG to Chinese Hamster Ovary (CHO) cells expressing either human or cynomolgus ILT7 in a 384-well (Costar 3655) format. ScFv or Ab binding to cells was detected using a mouse anti-His/goat anti-mouse Alexafluor®-647 labelled antibody (Molecular Probes A21236) mix, or goat anti-human Alexafluor®-647 labelled antibody (Molecular Probes A21445) respectively. Plates were read on the Applied Biosystems Cellular Detection system 8200 reader. The Helium neon excitation laser was focused within 100 μm depth of the bottom of the well, scanning an area 1 mm². The cells settled at the bottom of the well, and upon laser excitation at 633 nm, those beads with fluorophore bound (where the local concentration of fluorophore is relatively high compared to unbound fluorophore) emitted a signal at 650-685 nm that was measured using photomultiplier tube-1 (PMT1). […] The presence of scFv or IgG samples binding to the cells at the bottom of the well caused an increase in Alexafluor-labeled detection antibody within the excitation depth. This was measured as an increase in fluorescence.
Species cross-reactivity of anti-ILT7 antibodies was determined using FMAT binding assay. The detailed assay method is provided in the Materials and Methods section. […]

Binder	binding result
B1	binds
B2	binds

Target: T1, human ILT7 expressed on transfected …
Assay: cell-based or functional assay

Binder	ADCC EC50	ADCC potency EC50
B3	4.19 µM	
B4		> 89 µM
B5		> 89 µM
B6		> 89 µM
B7		> 89 µM
B8		> 89 µM
B9		> 89 µM
B10		> 89 µM
B11		> 89 µM
B12		> 89 µM
B13		< 14.1 µM
B14		< 14.1 µM and 11 µM
B15		< 14.1 µM and 6.9 µM
B16	1.12 µM	
B17		< 14.1 µM and 8 µM and 10 µM
B18		< 14.1 µM and 7.8 µM
B19		< 14.1 µM and 8.6 µM
B20		< 14.1 µM and 11.9 µM

Target: T2, cynomolgus ILT7 expressed on transfected cells (cynomolgus, UniProt P59901 24-499 (human entry))
T2 sequence (P59901 other isoform, or with tags, fused parts or gaps limits assumed): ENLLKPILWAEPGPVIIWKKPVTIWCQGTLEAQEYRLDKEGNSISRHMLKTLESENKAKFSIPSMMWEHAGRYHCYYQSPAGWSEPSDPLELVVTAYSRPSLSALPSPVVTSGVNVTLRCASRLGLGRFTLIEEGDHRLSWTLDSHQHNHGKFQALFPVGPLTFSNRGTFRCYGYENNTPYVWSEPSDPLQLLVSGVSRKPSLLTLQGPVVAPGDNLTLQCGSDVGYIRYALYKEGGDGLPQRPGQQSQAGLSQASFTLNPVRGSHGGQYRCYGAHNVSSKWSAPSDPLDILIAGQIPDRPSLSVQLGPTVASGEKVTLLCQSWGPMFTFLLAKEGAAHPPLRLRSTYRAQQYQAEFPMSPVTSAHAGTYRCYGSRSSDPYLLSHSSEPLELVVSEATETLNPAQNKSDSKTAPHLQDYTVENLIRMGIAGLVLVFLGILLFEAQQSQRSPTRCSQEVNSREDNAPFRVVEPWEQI
Assay: cell-based or functional assay

Binder	ADCC EC50
B3	1.89 µM
B16	0.44 µM

Target: T2, cynomolgus ILT7 expressed on …
Assay: flow cytometry on CT-125 cells expressing cynomolgus ILT7
Experimental: Binding of anti-ILT7 variants and isotype controls on human and cynomolgus ILT7 was assessed by flow cytometry analysis using CT-550 and cynoILT7 CT-125 cells respectively. CT-125 cells were used as control. Cells were resuspended in Blocking Buffer (PBS supplemented with 10% FBS) at a concentration of 5 million cells per mL and transferred into a round-bottom 96-well plates (BD Falcon™ Clear Microtest Plate, BD Biosciences) at 100 μL per well. Anti-ILT7 variants and control antibodies were added onto the cells for 30 min at 4° C. on a plate shaker. Cells were washed three times with PBS and resuspended in Blocking Buffer (100 μL/well). Human IgG binding on cell surface was detected using a secondary anti-human IgG antibody conjugated to DyLight 649 (1 in 1000 dilution). Cells were incubated in the dark for 30 min at 4° C. on a plate shaker. Cells were washed three times with PBS and surface fluorescence was acquired using LSRII Flow Cytometry System and FACSDiva Software (both from BD Biosciences).
The resultant IgG1s were tested to confirm that the sequence changes incorporated into ILT70080 and ILT70083 and had not adversely impacted the binding of the parent antibody to cells expressing human ILT7 (CT-550 cells) or cynomolgus ILT7 (CT-125 cells). The variants were screened for binding by flow cytometry. […] However, five ILT70083 variants (ILT70083.4, ILT70083.9, ILT70083.3, ILT70083.6, and ILT70083.8) had improved binding capacity compared to the parental antibody for cynomolgus ILT7.

Binder	binding result
B5	binds
B6	binds
B9	binds
B10	binds
B11	binds
B13	binds
B14	binds
B15	binds
B17	binds
B18	binds
B19	binds
B20	binds

From patent US20230250167A1 (published 2023)
